The values below come from the RNAGym collection of RNA variant scans (doi:10.7554/elife.80360).

Sequences and labels used below:
B1: Hammerhead Ribozyme (parent)
chain: ACCGGAUGUGCUUUCCGGUCUGAUGAGUCCGUGAGGACGAAACAG

Variants of B1 are the subject of the data set. The experiment in a line: self-cleavage, relative activity (ratio to wild type); higher = more cleavage; co-transcriptional.
For the variant G22C G31U, the self-cleavage is 0.309.

On to G22U A37U, for which the self-cleavage amounted to 0.296. With G22U A37G the figure was 0.417; with G22U A37C, 0.3. For G22A A26G the value was 0.269; for G22A A26U, 0.338. For G22A A26C the value was 0.316; for U21G A26U, 0.431.

With U21G A26G, the self-cleavage was determined as 0.343.

With U21G A26C, the self-cleavage worked out at 0.237. G22U G35U: the self-cleavage was determined as 0.366.

Regarding G22U G35C, the self-cleavage turned out to be 0.311. With G22U G35A the figure was 0.335; with A23C A40U, 0.243.

For the variant A23C A40C, the self-cleavage was 0.31. For A23C A40G the value was 0.351; for U21G G27U, 0.296. In the case of U21G G27A, the self-cleavage amounted to 0.39. U21G G27C: the self-cleavage was determined as 0.4. As to A23C A41G, the self-cleavage was 0.394. In the case of A23C A41U, the self-cleavage is 0.361. With A23C A41C the figure was 0.313; with G22C, 0.336.

Consider G22U, for which the self-cleavage turned out to be 0.362.

Turning to G22A, the self-cleavage worked out at 0.356.

Regarding G22A C43A, the self-cleavage was 0.411. With G22A C43U the figure was 0.318; with G22A C43G, 0.288. With G22U C29U the figure was 0.251; with G22U C29G, 0.317. With G22U C29A, the self-cleavage came out at 0.299.

As for U21C U24C, the self-cleavage came to 0.909. For U21C U24G the value was 1.07. For the variant U21C U24A, the self-cleavage came to 1.13. With U21G A42C the figure was 0.393; with U21G A42U, 0.36; with U21G A42G, 0.223.

For G22C A44C, the self-cleavage amounted to 0.369.

G22C A44G: the self-cleavage turned out to be 0.672. With G22C A44U the figure was 0.323; with A23C A26C, 0.376. On to A23C A26G, for which the self-cleavage was 0.212. Regarding A23C A26U, the self-cleavage was 0.33.

With G22U C43A, the self-cleavage was found to be 0.293.

Regarding G22U C43G, the self-cleavage worked out at 0.348. Take G22U C43U: the self-cleavage turned out to be 0.305. For G22U A42U the value was 0.36; for G22U A42G, 0.285.

In the case of G22U A42C, the self-cleavage was 0.359.

For the variant U21C G39U, the self-cleavage came out at 0.34. With U21C G39C the figure was 0.378; with U21C G39A, 0.304; with U21G G36C, 0.365. With U21G G36A the figure was 0.382. With U21G G36U the figure was 0.333. Take G22C A41U: the self-cleavage amounted to 0.416. Turning to G22C A41G, the self-cleavage is 0.31. With G22C A41C the figure was 0.321. For G22U A23U the value was 0.307; for G22U A23C, 0.284; for G22U A23G, 0.297. In the case of G22A G31C, the self-cleavage was determined as 0.396. Consider G22A G31U, for which the self-cleavage came out at 0.427.

On to G22A G31A, for which the self-cleavage stood at 0.337.

Regarding G22A C38G, the self-cleavage stood at 0.329. For G22A C38U the value was 0.328; for G22A C38A, 0.327; for G22A G35A, 0.336.

Take G22A G35U: the self-cleavage amounted to 0.328. With G22A G35C the figure was 0.294; with G22C C29U, 0.3. For G22C C29G, the self-cleavage was 0.266.

G22C C29A: the self-cleavage is 0.296. U21G C38A: the self-cleavage is 0.388.

Take U21G C38U: the self-cleavage came to 0.374. In the case of U21G C38G, the self-cleavage was found to be 0.303.

Take G22U A40C: the self-cleavage was 0.368. Regarding G22U A40U, the self-cleavage was 0.332. Take G22U A40G: the self-cleavage is 0.288.

For G22C A23C, the self-cleavage worked out at 0.28. For G22C A23G the value was 0.312. For G22C A23U, the self-cleavage worked out at 0.351.

For the variant G22C C43U, the self-cleavage is 0.391. For G22C C43G the value was 0.24; for G22C C43A, 0.23; for U21C U28A, 0.573. For U21C U28G the value was 0.703; for U21C U28C, 0.977. With G22C G33A the figure was 0.266.

For G22C G33U, the self-cleavage amounted to 0.374.

As for G22C G33C, the self-cleavage amounted to 0.381. As for U21C G27U, the self-cleavage was found to be 0.361.

On to G22U U24C, for which the self-cleavage was determined as 0.348.

Regarding G22U U24G, the self-cleavage was 0.361.

In the case of G22U U24A, the self-cleavage was determined as 0.316. Take U21G A41C: the self-cleavage was found to be 0.404. As to U21G A41G, the self-cleavage is 0.29. For U21G A41U the value was 0.333; for G22A A41U, 0.318. With G22A A41G the figure was 0.365; with G22A A41C, 0.383.

With U21G A40U, the self-cleavage was found to be 0.331. As for U21G A40C, the self-cleavage stood at 0.312.

Take U21G A40G: the self-cleavage was 0.345. On to G22C U32G, for which the self-cleavage turned out to be 0.315.

Take G22C U32A: the self-cleavage is 0.371. With G22C U32C the figure was 0.335; with G22U G33A, 0.307; with G22U G33C, 0.363. On to G22U G33U, for which the self-cleavage stood at 0.416. For G22A G39C the value was 0.385; for G22A G39A, 0.367; for G22A G39U, 0.325. For U21C G31A the value was 0.974.

Regarding U21C G31U, the self-cleavage was found to be 0.83.

For the variant U21C G31C, the self-cleavage stood at 0.678.

As to U21G U28C, the self-cleavage came to 0.381.

In the case of U21G U28A, the self-cleavage turned out to be 0.4.

Take U21G U28G: the self-cleavage was 0.564. For A23C A37G the value was 0.237; for A23C A37U, 0.42. With A23C A37C, the self-cleavage amounted to 0.384. For the variant G22U U32A, the self-cleavage stood at 0.282.

For the variant G22U U32C, the self-cleavage amounted to 0.272. With G22U U32G the figure was 0.299; with G22C C30A, 0.346.

Turning to G22C C30G, the self-cleavage is 0.351.

Consider G22C C30U, for which the self-cleavage is 0.36. Take G22A C29U: the self-cleavage was determined as 0.279.

G22A C29G: the self-cleavage was 0.332.

Consider G22A C29A, for which the self-cleavage turned out to be 0.342.

With G22U G36A, the self-cleavage worked out at 0.316.

Consider G22U G36U, for which the self-cleavage was determined as 0.301. As for G22U G36C, the self-cleavage was 0.363. With U21G G45C the figure was 0.278; with U21G G45U, 0.281. For U21G G45A the value was 0.4; for G22C G35A, 0.337. For the variant G22C G35U, the self-cleavage was found to be 0.303. For G22C G35C the value was 0.336. With G22A G36A the figure was 0.361; with G22A G36U, 0.344. Consider G22A G36C, for which the self-cleavage stood at 0.309. With U21C G45C, the self-cleavage is 0.416.

For the variant U21C G45U, the self-cleavage was found to be 0.553.

As for U21C G45A, the self-cleavage was 0.436. For G22A A44U the value was 0.314; for G22A A44G, 0.672; for G22A A44C, 0.372.

For G22C A26G, the self-cleavage stood at 0.253. Take G22C A26C: the self-cleavage was found to be 0.3. For the variant G22C A26U, the self-cleavage worked out at 0.343.

In the case of G22U U28C, the self-cleavage was found to be 0.312.

Take G22U U28G: the self-cleavage stood at 0.294. With G22U U28A the figure was 0.326; with G22U G45U, 0.428; with G22U G45C, 0.348. With G22U G45A the figure was 0.345; with U21C G33C, 0.756; with U21C G33A, 0.74. In the case of U21C G33U, the self-cleavage worked out at 0.795.

As to G22C A40C, the self-cleavage is 0.339. Consider G22C A40U, for which the self-cleavage stood at 0.342.

Consider G22C A40G, for which the self-cleavage was found to be 0.351. With G22A A40U the figure was 0.366; with G22A A40C, 0.371. With G22A A40G the figure was 0.297.
